Source: the Human Domainome abundance scans (Beltran et al. 2025)
± gives the uncertainty stated by the source.

B1: Ankyrin-1, residues 1405 to 1484; numbered along this chain, P16157 (parent)
chain: MKMAVISEHLGLSWAELARELQFSVEDINRIRVENPNSLLEQSVALLNLWVIREGQNANMENLYTALQSIDRGEIVNMLE

Variants of: B1
Test: abundance fitness (aPCA) (normalised: wild type 0, dead -1); higher = more abundant; growth selection in yeast, the domain comes from the species named
Settings: Homo sapiens

Variant | abundance fitness
L39D | -0.063 ± 0.18
L39I | -0.41 ± 0.43
A45L | -0.627 ± 0.088
A45R | -0.147 ± 0.036
A45N | -0.226 ± 0.18
E80G | 0.126 ± 0.08
E80D | 0.164 ± 0.071
E80V | -0.154 ± 0.13
E80S | -0.056 ± 0.099
K2F | -0.22 ± 0.11
K2P | -0.587 ± 0.15
A18P | -0.912 ± 0.17
A18N | -0.627 ± 0.29
N57K | -0.117 ± 0.11
N57T | -0.154 ± 0.16
N57D | -0.072 ± 0.15
E16R | -0.085 ± 0.056
E16N | 0.161 ± 0.26
V33D | -0.031 ± 0.14
V33N | -0.103 ± 0.28
V33P | -0.764 ± 0.24
V33A | 0.096 ± 0.057
V33T | 0.138 ± 0.082
V33I | -0.018 ± 0.13

Variant | abundance fitness
E34C | -0.257 ± 0.19
N37S | -0.064 ± 0.09
N37E | -0.005 ± 0.082
N35A | -0.304 ± 0.095
N35M | -0.317 ± 0.17
Q68C | -0.235 ± 0.17
Q68F | -0.178 ± 0.13
Q68P | -0.767 ± 0.2
Q68A | -0.012 ± 0.058
I75R | -0.915 ± 0.14
I75M | -0.256 ± 0.17
I75E | -0.766 ± 0.23
A15T | 0 ± 0.064
A15F | -0.039 ± 0.058
A15W | -0.288 ± 0.065
H9T | -0.285 ± 0.16
H9D | -0.826 ± 0.3
H9E | -0.148 ± 0.16
H9N | -0.019 ± 0.18
W14E | -0.788 ± 0.36
W14H | -0.873 ± 0.29
Y64N | 0.087 ± 0.2
Y64H | -0.312 ± 0.17
Y64C | -0.24 ± 0.084

Variant | abundance fitness
Y64L | -0.172 ± 0.067
Y64P | -0.725 ± 0.22
R19T | -0.092 ± 0.046
R53V | -0.847 ± 0.11
S24K | -0.147 ± 0.099
S24F | -0.837 ± 0.36
L46K | -0.741 ± 0.31
N29G | -0.133 ± 0.049
N29L | -0.127 ± 0.059
N29Y | -0.484 ± 0.16
N29M | -0.075 ± 0.068
N29V | -0.213 ± 0.054
N29C | -0.184 ± 0.12
S69P | -0.467 ± 0.13
S69E | -0.042 ± 0.068
S69A | -0.045 ± 0.051
L47I | -0.256 ± 0.2
L47A | -0.905 ± 0.15
E41T | -0.184 ± 0.072
E41F | -0.28 ± 0.11
A66P | -0.1 ± 0.066
A66Q | -0.402 ± 0.21
A66R | -0.746 ± 0.1
L10F | -0.706 ± 0.27

Variant | abundance fitness
L10N | -0.69 ± 0.28
L10W | -0.872 ± 0.23
Q22F | -0.092 ± 0.15
L49I | -0.058 ± 0.1
L49T | -0.216 ± 0.092
L49D | -0.196 ± 0.087
L49H | -0.239 ± 0.12
V76F | -0.528 ± 0.27
V76G | -0.566 ± 0.069
V76C | -0.051 ± 0.095
V76P | -0.234 ± 0.12
I28D | -0.584 ± 0.43
I28L | -0.529 ± 0.083
I28M | -0.341 ± 0.13
I28R | -0.571 ± 0.071
V25Y | 0.143 ± 0.097
V25S | 0.002 ± 0.054
M78K | 0.087 ± 0.11
M78G | -0.085 ± 0.065
L40G | -0.286 ± 0.06
L40H | -0.136 ± 0.11
E54I | -0.931 ± 0.26
E54V | -0.412 ± 0.061
E54A | -0.496 ± 0.077

Variant | abundance fitness
E54S | -0.136 ± 0.052
V5K | -0.279 ± 0.12
V5I | -0.337 ± 0.15
N48P | -1.07 ± 0.34
N48V | -0.474 ± 0.094
L17C | -0.81 ± 0.2
L17W | -0.636 ± 0.12
L17P | -0.881 ± 0.23
S38K | -0.386 ± 0.25
S38C | -0.099 ± 0.087
S38P | -0.822 ± 0.23
S38L | -0.781 ± 0.16
S38F | -0.345 ± 0.17
L63M | -0.027 ± 0.087
E26M | -0.189 ± 0.1
E74A | -0.364 ± 0.095
D27K | -0.508 ± 0.15
D27I | -0.043 ± 0.094
G73C | -0.272 ± 0.096
G73I | -0.486 ± 0.13
G73K | -0.289 ± 0.079
G73D | -0.491 ± 0.11
N62D | 0.109 ± 0.11
N62P | -0.265 ± 0.15

Variant | abundance fitness
N62V | 0.071 ± 0.065
N62L | -0.037 ± 0.09
I70S | -0.604 ± 0.13
I70H | -0.404 ± 0.45
I70L | -0.762 ± 0.1
I70F | -0.693 ± 0.2
E20S | -0.145 ± 0.049
S7H | -0.877 ± 0.39
A4S | -0.259 ± 0.083
A4G | 0.084 ± 0.071
A4F | -0.206 ± 0.14
R30D | -0.122 ± 0.11
R30K | 0.054 ± 0.12
E8S | -0.18 ± 0.061
A58Q | -0.095 ± 0.14
A58F | -0.253 ± 0.2
D71H | -0.192 ± 0.18
V44W | -0.021 ± 0.083
V44G | 0.046 ± 0.039
V44Y | 0.03 ± 0.09
L12E | -0.499 ± 0.29
L12N | 0.139 ± 0.2
S43Y | -0.857 ± 0.16
S43I | -0.919 ± 0.26

Variant | abundance fitness
V51T | 0.068 ± 0.07
S13I | -0.815 ± 0.3
S13M | -0.441 ± 0.2
M3I | 0.127 ± 0.11
M3P | -0.474 ± 0.076
P36W | -0.219 ± 0.095
Q42D | -0.698 ± 0.17
Q42R | -0.152 ± 0.068
W50A | -0.902 ± 0.2
W50S | -0.734 ± 0.14
W50K | -0.655 ± 0.18
M60F | 0.671 ± 0.27
G11N | -0.161 ± 0.21
L67E | -0.792 ± 0.21
L67P | -0.858 ± 0.26
T65M | -0.15 ± 0.076
T65F | -0.095 ± 0.083
T65A | -0.029 ± 0.052
L79E | -0.335 ± 0.11
L79V | 0.132 ± 0.049
L79G | -0.379 ± 0.059
L79K | -0.429 ± 0.21
G55Q | -0.339 ± 0.13
